According to US20190153406:
Substitutions are numbered along the chain they refer to. Numbers in names are those of the source.

B1: human wild-type MG53 (protein)
chain: MSAAPGLLHQELSCPLCLQLFDAPVTAECGHSFCRACLGRVAGEPAADGTVLCPCCQAPTRPQALSTNLQLARLVEGLAQVPQGHCEEHLDPLSIYCEQDRALVCGVCASLGSHRGHRLLPAAEAHARLKTQLPQQKLQLQEACMRKEKSVAVLEHQLVEVEETVRQFRGAVGEQLGKMRVFLAALEGSLDREAERVRGEAGVALRRELGSLNSYLEQLRQMEKVLEEVADKPQTEFLMKYCLVTSRLQKILAESPPPARLDIQLPIISDDFKFQVWRKMFRALMPALEELTFDPSSAHPSLVVSSSGRRVECSEQKAPPAGEDPRQFDKAVAVVAHQQLSEGEHYWEVDVGDKPRWALGVIAAEAPRRGRLHAVPSQGLWLLGLREGKILEAHVEAKEPRALRSPERRPTRIGLYLSFGDGVLSFYDASDADALVPLFAFHERLPRPVYPFFDVCWHDKGKNAQPLLLVGPEGAEA
B2: human MG53 S255A mutant (protein)
chain: B1 chain with S255A
B3: mouse MG53 S255A mutant (protein)
chain: MSAAPGLLRQELSCPLCLQLFDAPVTAECGHSFCRACLIRVAGEPAADGTVACPCCQAPTRPQALSTNLQLSRLVEGLAQVPQGHCEEHLDPLSIYCEQDRTLVCGVCASLGSHRGHRLLPAAEAQARLKTQLPQQKMQLQEACMRKEKTVAVLEHQLVEVEETVRQFRGAVGEQLGKMRMFLAALESSLDREAERVRGDAGVALRRELSSLNSYLEQLRQMEKVLEEVADKPQTEFLMKFCLVTSRLQKILSEAPPPARLDIQLPVISDDFKFQVWKKMFRALMPALEELTFDPSSAHPSLVVSSSGRRVECSDQKAPPAGEDTRQFDKAVAVVAQQLLSQGEHYWEVEVGDKPRWALGVMAADASRRGRLHAVPSQGLWLLGLRDGKILEAHVEAKEPRALRTPERPPARIGLYLSFADGVLAFYDASNPDVLTPIFSFHERLPGPVYPIFDVCWHDKGKNAQPLLLVGPEQEQA
B4: mouse wild-type MG53 (protein)
chain: B3 chain with A255S

Experiments:
[1] = biological target: IRS1 (insulin receptor substrate-1), species not stated
Chain of IRS1 (insulin receptor substrate-1), species not stated (P35568 whole entry): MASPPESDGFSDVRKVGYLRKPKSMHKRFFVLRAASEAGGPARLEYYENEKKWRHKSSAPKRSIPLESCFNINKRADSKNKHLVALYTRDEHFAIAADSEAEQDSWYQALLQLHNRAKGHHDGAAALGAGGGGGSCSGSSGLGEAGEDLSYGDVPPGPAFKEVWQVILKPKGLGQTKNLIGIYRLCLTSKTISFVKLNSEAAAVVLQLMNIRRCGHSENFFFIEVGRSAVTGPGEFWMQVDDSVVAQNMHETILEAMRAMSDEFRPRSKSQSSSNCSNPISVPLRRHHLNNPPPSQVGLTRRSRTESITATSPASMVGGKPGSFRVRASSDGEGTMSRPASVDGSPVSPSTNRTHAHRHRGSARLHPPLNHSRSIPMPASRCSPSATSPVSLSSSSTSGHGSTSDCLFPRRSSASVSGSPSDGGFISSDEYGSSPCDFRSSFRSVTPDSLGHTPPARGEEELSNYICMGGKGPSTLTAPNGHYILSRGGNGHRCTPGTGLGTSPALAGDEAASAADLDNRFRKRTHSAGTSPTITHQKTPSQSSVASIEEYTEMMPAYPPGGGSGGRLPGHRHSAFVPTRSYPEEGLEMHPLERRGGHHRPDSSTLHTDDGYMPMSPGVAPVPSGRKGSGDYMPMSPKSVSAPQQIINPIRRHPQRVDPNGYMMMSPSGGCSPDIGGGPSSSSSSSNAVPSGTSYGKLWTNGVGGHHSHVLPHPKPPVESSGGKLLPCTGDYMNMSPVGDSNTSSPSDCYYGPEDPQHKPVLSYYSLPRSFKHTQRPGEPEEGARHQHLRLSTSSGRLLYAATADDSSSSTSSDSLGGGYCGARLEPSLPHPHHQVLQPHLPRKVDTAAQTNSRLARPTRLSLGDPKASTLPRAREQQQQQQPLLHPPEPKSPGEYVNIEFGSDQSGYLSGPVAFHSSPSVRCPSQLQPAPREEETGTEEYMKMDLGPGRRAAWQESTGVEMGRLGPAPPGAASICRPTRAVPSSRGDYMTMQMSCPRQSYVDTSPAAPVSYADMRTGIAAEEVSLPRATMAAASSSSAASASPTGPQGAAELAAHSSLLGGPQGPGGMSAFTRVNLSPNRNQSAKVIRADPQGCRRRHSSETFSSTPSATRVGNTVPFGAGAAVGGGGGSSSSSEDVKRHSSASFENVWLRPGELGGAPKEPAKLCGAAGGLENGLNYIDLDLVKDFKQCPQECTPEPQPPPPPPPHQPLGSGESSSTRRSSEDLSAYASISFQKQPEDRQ

Protein | degradation of IRβ, Western Blot, HEK293T co-expression (FIG. 16B) (insulin receptor IR) | degradation of precursor protein of IRβ, HEK293T co-expression (insulin receptor IR) | further results
B1 |  |  | MG53-mediated substrate degradation, Western Blot, HEK293T co-expression (FIG. 17) [1]: human or mouse wild-type MG53 can significantly mediate IRS1 degradation
B2 |  |  | degradation of IRS1, Western Blot, HEK293T co-expression (FIG. 17) [1]: human MG53 S255A mutant can only mediate about 10% degradation of IRS1
B3 | mouse MG53-D-RING truncated mutant and mouse MG53 S255A mutant can hardly mediate IRβ degradation | mouse MG53-D-RING truncated mutant and mouse MG53 S255A mutant almost completely inhibited MG53-mediated degradation | degradation of IRS1, Western Blot, HEK293T co-expression (FIG. 16) [1]: mouse MG53 S255A mutant can only mediate about 40% degradation of IRS1
B4 | Mouse wild-type MG53 can mediate about 50% degradation of IRβ | mouse wild-type MG53 can mediate the degradation of precursor protein of IRβ | MG53-mediated substrate degradation, Western Blot, HEK293T co-expression (FIG. 16) [1]: human or mouse wild-type MG53 can significantly mediate IRS1 degradation
